In PMC3799227 one finds binding data, which are given here for one substance.

The subject of series [1] is BaeR (Salmonella enterica serovar Typhimurium). Kind of series: EMSA. In general terms: In EMSA bound probe runs differently from free probe, usually more slowly.
In series [2] the test system is BaeR-P (phosphorylated BaeR) (Salmonella enterica serovar Typhimurium). Put plainly: EMSA.

Consider sodA promoter fragment A (wild type), for which the values for the binding in series [1] and in series [2] were 0.9 µM and 0.6 µM, respectively.
